Experimental data published in patent US20090162353A1 (MacroGenics, published 2009).

Experiments:
[1] = target: T1, vaccinia virus recombinant B5 protein (vaccinia virus, UniProt Q01227 20-275); test: ELISA, B5 capture, IgG detect (luminescence) [C]
[2] = target: T1, vaccinia virus recombinant B5 protein; test: surface plasmon resonance; format not stated; target taken from the text

B1: Ch8AH8AL (antibody, V domains shown)
VH: EVQLVESGGGLIKPGGSLRLSCAASGFIFRDYNINWVRQAPGKGLEWLGFIRTRASGRSTEYSASVKGRFTISRDDSKNIAYLHINSLKMEDTAVYYCAKKGDSYYYMDFWGKGTAVTVSS
VL: ELALTQPASVSGSPGQSITISCTGGRSDLGDSNFVSWYQQYPGKAPKLLIYQVNKRPSGVPDRFSASKSANTASLTISGLQTEDEADYFCSSYTTTSTYVFGIGTKVVVLG
- EC50 (read off the curve) [1]: ~0.03 µg/mL
- Kd [2]: ≤ 0.6 nM
- koff [2]: ≤ 1e-05 s⁻¹
- kon [2]: 20000 M⁻¹ s⁻¹
